Source: patent US20060150268A1, “Plant-derived transferase genes” (priority 2002, published 2006)

B1: tomHQT: hydroxycinnamoyl-CoA quinate hydroxycinnamoyl transferase from tomato, 430 amino acids, SEQ ID NO 1 (protein, listed as Lycopersicon esculentum)
chain: MGSEKMMKINIKESTLVKPSKPTPTKRIWSSNLDLIVGRIHLLTVYFYKPNGSSNFFDNKVIKEALSNVLVSFYPMAGRLGRDEQGRIEVNCNGEGVLFVEAESDSCVDDFGDFTPSLELRKLIPSVETSGDISTFPLVIFQITRFKCGGVALGGGVFHTLSDGLSSIHFINTWSDIARGLSVAVPPFIDRTLLRARDPPTYSFEHVEYHPPPTLNSSKNRESSTTTMLKFSSEQLGLLKSKSKNEGSTYEILAAHIWRCTCKARGLPEDQLTKLHVATDGRSRLCPPLPPGYLGNVVFTATPIAKSCELQSEPLTNSVKRIHNELIKMDDNYLRSALDYLELQPDLSTLIRGPAYFASPNLNINSWTRLPVHECDFGWGRPIHMGPACILYEGTIYIIPSPNSKDRNLRLAVCLDAGHMSLFEKYLYEL
B2: tobHQT: hydroxycinnamoyl-CoA quinate hydroxycinnamoyl transferase from tobacco, 436 amino acids, SEQ ID NO 2 (protein, listed as Nicotiana tabacum)
chain: MGSEKMMKINIKESTLVKPSKPTPTKRLWSSNLDLIVGRIHLLTVYFYKPNGSSNFFDSKIMKEALSNVLVSFYPMAGRLARDEQGRIEINCNGEGVLFVEAESDAFVDDFGDFTPSLELRKLIPTVDTSGDISTFPLIIFQVTRFKCGGVSLGGGVFHTLSDGLSSIHFINTWSDIARGLSVAIPPFIDRTLLRARDPPTSSFEHVEYHPPPSLISSSKSLESTSPKPSTTTMLKFSSDQLGLLKSKSKHDGSTYEILAAHIWRCTCKARALSDDQLTKLHVATDGRSRLCPPLPPGYLGNVVFTGTPMAKSSELLQEPLTNSAKRIHSALSKMDDNYLRSALDYLELLPDLSALIRGPTYFASPNLNINSWTRLPVHDSDFGWGRPIHMGPACILYEGTVYILPSPNSKDRNLRLAVCLDADHMPLFEKYLYEF
B3: hsr201: tobacco hypersensitive response protein 201, a member of the transferase family (protein, UniProt Q8GT20 1-460, looked up)
Benzyl alcohol …: MDSKQSSELVFTVRRQKPELIAPAKPTPREIKFLSDIDDQEGLRFQIPVIQFYHKDSSMGRKDPVKVIKKAIAETLVFYYPFAGRLREGNGRKLMVDCTGEGIMFVEADADVTLEQFGDELQPPFPCLEELLYDVPDSAGVLNCPLLLIQVTRLRCGGFIFALRLNHTMSDAPGLVQFMTAVGEMARGASAPSILPVWCRELLNARNPPQVTCTHHEYDEVRDTKGTIIPLDDMVHKSFFFGPSEVSALRRFVPHHLRKCSTFELLTAVLWRCRTMSLKPDPEEEVRALCIVNARSRFNPPLPTGYYGNAFAFPVAVTTAAKLSKNPLGYALELVKKTKSDVTEEYMKSVADLMVLKGRPHFTVVRTFLVSDVTRGGFGEVDFGWGKAVYGGPAKGGVGAIPGVASFYIPFKNKKGENGIVVPICLPGFAMETFVKELDGMLKVDAPLDNSNYAIIRPAL

Key:
[1] = test system: leaves of Nicotiana benthamiana; experiment: Transient expression of HQT in leaves of Nicotiana benthamiana; format: in vivo; conditions: for HQT enzyme activity in leaves: plants expressing HQT under the control of the 35S promoter (FIG. 6); for amount of chlorogenic acid in vivo in plants: plants expressing HQT under the control of the 35S promoter, HPLC after 4 days (FIG. 6)
Method: Leaves were infiltrated with Agrobacterium tumefaciens C58C1 transformed with the plasmid pGFP, which contains the cDNA encoding GFP under control of the 35S promoter, along with bacteria transformed with either the plasmid p19 which carries a cDNA encoding a gene-silencing protein or the control plasmid pBIN19.
Soluble phenolics were extracted by vortexing 30 mg of frozen, powdered leaf material in 300 μl of 70% methanol. After addition of 100 μl distilled water, the extract was vortexed again and then spun for 10 sec at 13,000 g to pellet the debris. The supernatant was analysed by gradient HPLC (apparatus from Spectra Physics, San Jose, Calif.) using a Columbus 5-μm C18 column (25 cm×4.6 mm; Phenomenex, Macclesfiled, Cheshire, UK). Solvent A was 1 mM trifluoroacetic acid, solvent B was acetonitrile, and the gradient was run for 65 min at flow rate of 1 ml min^−1 with the following concentrations: 0 min :100% A, 0% B; 50 min: 60% A, 40% B; 60 min: 30% A, 70% B; 65 min: 100% A, 0% B. The column eluant was monitored using a Spctra Fous scanning detector (Spectra Physics). A chlorogenic acid standard (Sigma) was used to quantify the amount of chlorogenic acid in the leaf extracts.
After the transfer of the overexpression constructs pTom and pTob, and the iRNA constructs pFRNtom and pFRN-tob to Agrobacterium tumefaciens C58C1 (DEBLAERE et al., 1985) single colonies were used for growing 50 mL overnight cultures. Additional 50 ml overnight cultures of Agrobacterium tumefaciens C58C1 containing expression constructs of the green fluorescent protein (PGFP) or the gene silencing inhibitor protein 19 (p19; kindly provided by O. Vionnet) or the empty binary vectors pBIN19 and pFRN were also grown. The cells were precipitated by centrifugation at 4000 g for 20 min and resuspended in 50 ml 10 mM MgCl2. After addition of 50 μl 100 mM acetosyringene the cells were incubated at room temperature overnight. To overexpress HQT similar amounts of the cultures containing pGFP, pTom, pTob were mixed with the same volume of cultures containing either pBIN19 or p19 and each mixture was used to infiltrate three leaves of a Nicotiana benthamiana plant. […] For gene silencing the cultures containing pFRN-tom, pFRN-tob and pFRN were used to infiltrate three leaves of Nicotiana benthamiana.

[2] = test system: HQT enzyme activity (caffeoyl CoA and quinic acid as substrates); experiment: HQT enzyme assay with crude extracts from E. coli expressing the recombinant protein; format: biochemical, Escherichia coli; conditions: recombinant protein expressed in E. coli, decrease of caffeoyl-CoA measured spectrophotometrically (FIG. 5)
Method: As described above, HQT catalyses the production of chlorogenic acid via transfer of the caffeoyl moiety of caffeoyl-CoA to quinic acid. Such activity can be assessed, for example, using the assay described in Example 2. Briefly, the assay uses caffeoyl CoA and quinic acid as substrates, and the rate of conversion of caffeoyl CoA to chlorogenic acid is determined by spectrophotometry.
The reaction was initiated by adding the substrate quinic acid and the enzyme activity was measured spectrophotometrically as decrease of the amount of caffeoyl-CoA.
The enzyme activity was determined by spectrophotometry at 30° C. The reaction mixture contained in a total volume of 1 ml: 100 mM Na-Pi buffer pH 7.0, 1 mM EDTA, 16.8 μM caffeoyl CoA and 10-50 μl protein extract. […] The extinction coefficient for caffeoyl CoA is 1.8×10^4 M^−1 cm^−1 (ZENK et al., 1980). The synthesis of caffeoyl CoA was carried out as described previously (SEMLER et al., 1987).
The full-length cDNA of HQT from tomato was subcloned in frame into the NcoI and BamHI-sites of the expression vector pSTAG under the control of the T7 RNA-Polymerase promoter. This strategy led to the introduction of a sequence encoding an S-TAG at the 5′-end of the cDNA. According to procedures provided by the manufacturer (Novagen), the expression and purification of the fusion protein was carried out using the S-TAG™ Thrombin Purification Kit. The enzyme activity of the purified protein was then analysed in HQT enzyme assays.

Molecule | HQT enzyme activity in leaves [1] | amount of chlorogenic acid in vivo in plants [1] [fold] | HQT enzyme activity [2] | HQT enzyme activity ([2]; listed as Hsr201)
B1 | Increased HQT enzyme activity | 2 | showed HQT enzyme activity | 
B2 | Increased HQT enzyme activity | 2 |  | 
B3 |  |  | no enzyme activity was detected | no HQT enzyme activity
